Laboratory results taken from patent US20030224521, “Enhanced homologous recombination mediated by lambda recombination proteins” (The Gov. of the USA Secretary of the Department of Health …, published 2003).

T1: lambda Beta (Bet) (Bacteriophage lambda, UniProt P03698 P03698:1-261)
T1 sequence: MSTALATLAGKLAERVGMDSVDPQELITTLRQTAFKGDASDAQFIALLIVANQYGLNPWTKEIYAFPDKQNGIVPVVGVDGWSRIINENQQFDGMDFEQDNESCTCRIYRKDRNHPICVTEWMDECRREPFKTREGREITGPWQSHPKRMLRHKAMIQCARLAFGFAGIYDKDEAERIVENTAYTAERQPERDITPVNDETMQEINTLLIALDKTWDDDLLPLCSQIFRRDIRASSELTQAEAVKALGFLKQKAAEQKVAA

B1: galK 20-mer oligo (ssDNA)
DNA: GCAGCTTTATCATCTGCCGC
B2: galK 50-mer oligo (ssDNA)
DNA: CGGAACCGTATTGCAGCAGCTTTATCATCTGCCGCTGGACGGCGCACAAA
B3: galK 60-mer oligo (ssDNA)
DNA: GCGGTCGGAACCGTATTGCAGCAGCTTTATCATCTGCCGCTGGACGGCGCACAAATCGCG
B4: galK 40-mer oligo (ssDNA)
DNA: CCGTATTGCAGCAGCTTTATCATCTGCCGCTGGACGGCGC
B5: galK 30-mer oligo (ssDNA)
DNA: TTGCAGCAGCTTTATCATCTGCCGCTGGAC

Target: T1, lambda Beta (Bet)
Assay: cell_activity; HME9, Exo and Gam co-expressed
Settings: tags: expressed from pL of defective prophage in E. coli
Procedure: Using the methods described in Examples 2, 3, 5, 10 and 11, lambda operon expression was heat-induced, cells were rendered electroporation-competent, and ssDNA oligonucleotides (200 ng each) were electroporated into E. coli HME9 strain cells. The electroporated ssDNA oligonucleotides included the 70-mer of SEQ ID NO: 11, a 60-mer constructed by removing the last 5 nucleotides from both the 5′ and 3′ ends of SEQ ID NO: 11, and a 50-mer, 40-mer, 30-mer, or 20-mer constructed by removing the last 10, 15, 20, or 25 nucleotides, respectively, from both the 5′ and 3′ ends of SEQ ID NO: 11. As in example 10, the ssDNA oligonucleotides used in this experiment were all designed to restore the galK+ gene upon successful recombination, thereby conferring upon the cell a Gal+ phenotype. Table 7 indicates the number of galK+ recombinants per viable cell, […].

Row | Binder | activity
1 | B1 | 1e-06 recombinants per viable cell
2 | B2 | 0.0004 recombinants per viable cell
3 | B3 | 0.0006 recombinants per viable cell
4 | B4 | 0.0004 recombinants per viable cell
5 | B5 | 4.7e-05 recombinants per viable cell
